The values that follow come from US20110287023A1 (AstraZeneca / MedImmune, published 2011).

Substitutions are numbered along the chain they refer to. Where no end group is shown, it is not given here.

Assay [1] addresses T1, HMGB1 in sera of septic peritonitis mice (mouse, UniProt P63158 1-215).
T1 construct: also called HMGB1 from sepsis sera (ELISA); peritonitis sera HMGB1
T1 sequence (looked up): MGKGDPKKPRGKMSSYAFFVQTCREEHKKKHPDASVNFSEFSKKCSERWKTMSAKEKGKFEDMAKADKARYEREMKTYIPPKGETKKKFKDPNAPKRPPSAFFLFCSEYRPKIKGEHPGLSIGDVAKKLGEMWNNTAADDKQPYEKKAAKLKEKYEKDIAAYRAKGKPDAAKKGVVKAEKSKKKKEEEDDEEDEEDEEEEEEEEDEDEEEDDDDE
Description: sandwich ELISA: antibody captured on anti-human Fc, peritonitis serum added, mouse anti-HMGB1 detection, OD 450. As for the experimental part:
HMGB1 Detection from Biological Samples: For detection of the HMGB1 from AIA joint homogenates and peritonitis sera, sandwich ELISA was performed. Goat anti-human Fc (Pierce) 14 μg/ml in PBS was coated on Immunlon IV microtiter plate over night at 4° C. After washing and blocking with 5% milk 1 hr at room temperature, G4 or S6 in blocking buffer (10 μg/ml) were added to each well of the blocked plate. The plate was washed 1 hour later and 25 μl of AIA homogenates containing 0.8 μg/ml of HMGB1 or peritonitis sera containing 7 μg/ml of HMGB1 in 0.5 M NaCl/blocking buffer were added to the wells at two fold serial dilutions. The unbound materials were removed by washing one hr after incubation. The bound HMGB1 was detected by a mouse anti-HMGB1 antibody at 2 μg/ml followed by an anti-mouse antibody conjugated with horseradish peroxidase. Mouse peritonitis sera was obtained by heart puncture 7 days after infection with heat killed staphylococcus aureus. Joint lysate was prepared from the whole paw of AIA rats as described in Example 6 below. Human sepsis sera were purchased from a commercial source.

Assay [2] has as its target T2, recombinant HMG1 produced in E. coli as a calmodulin binding protein (CBP) fusion (human).
T2 construct: also called rHMG1; rHMGB1
The assay is described as follows: sandwich ELISA, captured antibody and soluble HMG1, OD 450. As for the experimental part:
(§1) Sandwich ELISA (soluble HMG1): Immunoplates (EIA/RIA plate, High binding, Costar) were coated with anti human IgG Fc at 10 μg/ml in PBS (pH 7.2) and incubated at 4° C. overnight. The coating reagent was removed and the plates were rinsed briefly with PBS. The plates were then blocked with 4% milk for 1 hour at 37° C. and rinsed with PBS. The anti-HMG1 antibodies were diluted in 4% milk. For serial dilutions, the antibodies were used at a starting concentration of 20 μg/ml. The diluted anti-HMG1 antibodies were then added into plate and incubated for 1 hr at 37° C. The plate was then washed 10 times with PBST (PBS/0.1% tween 20) and incubate with antigen (HMGB1, 2 μg/ml; or 0.7 μg/ml for native HMGB1) in 4% milk and incubated at 37° C. for 1 h. The plate was then wash 10 times and incubated with mouse anti-HMGB1, 1 μg/ml in 4% milk at 37° C. for 1 h. The plate was washed 10 times and incubated with anti-mouse IgG-HRP at 1:1000 at 37° C. for 1 h. The plate was then washed and developed. HRP activity was detected with Sureblue HRP substrate (KPL). Plates were read at 450 nm using a Kinetic Microplate Reader (Molecular Devices).

A further assay concerns the target T3, HMGB1 peptide 179-186 (UniProt P09429 179-186, also: biotinylated, site not given here).
T3 peptide (looked up): EKSKKKKE
The assay is described as follows: ELISA, biotinylated peptide on NeutrAvidin plate, antibody serially diluted from 10 ug/ml, anti-human IgG-HRP, OD 450. Here is the method:
(§2) The plate was then blocked with 4% milk powder dissolved in PBS at 37° C. for 1 hour. The blocking solution was removed and replaced with human anti-HMG1 antibodies at various concentrations (see FIGS. 5A-B). […] HRP activity was detected with Sureblue HRP substrate (KPL). Plates were read at 450 nm using a Kinetic Microplate Reader (Molecular Devices). […] After washing and blocking with 1% BSA in PBS, the biotinylated peptides were individually added into the avidin coated wells and incubated for 30 min at room temperature. The serial diluted antibody G4, S16 and S6 at the initial concentration at 10 μg/ml were then transferred into the wells followed by adding mouse anti human IgG-HRP conjugate (Pierce). Detection was accomplished by adding 50 μl of tetramethylbenzidine (TMB) substrate (KPL) and the absorbance was read at 450 nm.

Assay [3] concerns the target T4, HMGB1 B-box peptide 108-138 (UniProt P09429 108-138, biotinylated).
T4 peptide (looked up): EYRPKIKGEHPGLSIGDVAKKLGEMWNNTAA
Description: ELISA on biotinylated overlapping peptides. As for the experimental part: as §2

Assay [4] concerns the target T5, HMGB1 C-terminal tail peptide 188-215 (UniProt P09429 188-215, biotinylated).
T5 peptide (looked up): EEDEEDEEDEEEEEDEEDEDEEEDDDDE
The assay is described as follows: ELISA on biotinylated overlapping peptides. As for the experimental part:
as §2

Assay [5] addresses T6, actively secreted HMGB1 of LPS treated HUVEC cells (UniProt P09429 1-215, limits assumed).
T6 construct: whole, on cells; immunostaining
T6 sequence (looked up): T1 sequence (looked up) with D189E, E202D
The assay is described as follows: immunofluorescence on fixed LPS treated HUVEC, anti-human IgG-FITC; paragraph 81 gives the lower panels as G4. As for the experimental part: Immunofluorescence: Intracytoplasmic (ic) HMGB1 was quantitated by direct immunofluorescence. HUVEC were harvested by trypsin-EDTA treatment and seeded on a glass coverslip. Once the cells are settled, they were stimulated with 0.2 μg/ml of LPS (Sigma) for 4 hours. The cells were fixed in 2% paraformaldehyde for 15 min and then permeabilized in 0.2% Triton X-100 for 2 min. Fixed and permeabilized cells were incubated with anti-HMGB1 antibodies at 1 μg/ml for 1 hour at room temperature. Cells were then washed to remove excess or nonspecifically bound primary antibody followed by incubation with anti human IgG conjugated with fluorescence (Pierce). The sections were mounted with fluoromount (Southern Associates, Birmingham, Ala.), and the images were processed with a Nikon microscope (Japan) and a SPOT imaging system (Diagnostic Instrument).

In another assay the target is T7, HMGB1 peptide 106-123 (also: biotinylated, site and spacer not given here).
T7 peptide: CSEYRPKIKGEHPGLSIG
The assay is described as follows: ELISA, biotinylated peptide on NeutrAvidin plate, antibody serially diluted from 10 ug/ml, anti-human IgG-HRP, OD 450. Here is the method: as §2

Assay [6] addresses T8, activated HMG1 from LPS stimulated THP-1 cells (human, UniProt P09429 1-215).
T8 sequence (looked up): T1 sequence (looked up) with D189E, E202D
Description: sandwich ELISA: antibody titrated and captured on anti-human IgG Fc, activated HMG1 in solution, mouse anti-HMGB1 detection, OD 450. As for the experimental part:
as §1

B1: human anti-HMG1 antibody S6 (antibody, V domains shown)
VH: EVQLLESGGGLVQPGGSLRLSCAASGFTFSWYDMSWVRQAPGKGLEWVSRISPSGGYTMYADSVKGRFTISRDNSKNTLYLQMNSLRAEDTAVYYCARLEVGATSGGTAFDIWGQGTMVTVSS
VL: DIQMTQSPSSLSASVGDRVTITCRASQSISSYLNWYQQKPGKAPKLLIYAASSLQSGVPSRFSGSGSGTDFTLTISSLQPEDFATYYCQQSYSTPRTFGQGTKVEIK
notes: full length IgG1 made from a human Fab phage clone; two paragraphs print 'S4' for the PTA-6143 deposit; also called ATCC PTA-6143
For the molecule B1, in assay [1], the binding result is recorded as “binds”.

B2: human anti-HMG1 antibody E11 (antibody, IgG1, V domains shown)
VH: EVQLLESGGGLVQPGGSLRLSCAASGFTFSRYQMNWVRQAPGKGLEWVSSISPSGGHTHYADSVKGRFTISRDNSKNTLYLQMNSLRAEDTAVYYCAKDGRQGKISTVDHWGQGTLVTVSS
VL: DIQMTQSPGTLSLSPGERATLSCRASQSVRSNFLAWYQQKPGQAPRLLIYGASRRASGIPDRFSGSGFGADFTLSISRLEPEDFAVYYCQQYGSSPNTFGQGSRVEIK
notes: full length IgG1 made from a human Fab phage clone
Turning to B2, the “EC50 (read off the curve)” value in assay [2] was roughly 0.4 µg/mL.

B3: human anti-HMG1 antibody S16 (antibody, IgG1, V domains shown)
VH: EVQLLESGGGLVQPGGSLRLSCAASGFTFSWYSMLWVRQAPGKGLEWVSYISPSGGFTNYADSVKGRFTISRDNSKNTLYLQMNSLRAEDTAVYYCARWDYNSGWYYDHWGQGTLVTVSS
VL: DIQMTQSPDTLSLSPGERATLSCRASQSVNSRNLAWYQQKPGQAPRLLIYGASTRATGIPDRFSGSVSGTEFTLTISSLQPDDFATYYCQQYNSYFTFGQGTKLEIK
notes: full length IgG1 made from a human Fab phage clone; also called ATCC PTA-6259
In the case of B3, the binding result with HMGB1 peptide 179-186 was “binds”.

B4: human anti-HMG1 antibody G4 (antibody, IgG1, V domains shown)
VH: EVQLLESGGGLVQPGGSLRLSCAASGFTFSWYDMTWVRQAPGKGLEWVSSISPSGGYTKYADSVKGRFTISRDNSKNTLYLQMNSLRAEDTAVYYCTTEFYDYLDVWGKGTTVTVSS
VL: DIQMTQSPGTLSLSPGEGATLSCRASQSVSSTYLAWYQQKPGQAPRLLIYEASKRATGTPARFSGSGSGTDFTLSISSLEPEDFAVYYCQHRHNWPPQWTFGQGTKVEVK
notes: full length IgG1 made from a human Fab phage clone; also called ATCC PTA-6258
Take B4: the binding result (in assay [3]; in assay [4]; in assay [5]; in the assay with HMGB1 peptide 106-123; in assay [6]) was “binds” in each case.
